Patent US20260002137

Key:
Assay in all cases: cell_activity
[1] = tested on: ProCre-LRGAG (cyclized sCre with AVP site) (Escherichia phage P1?); details: 293T; without AVP 4.5±0.6%; with AVP 40±1%; FLEx module with mCherry removed
[2] = tested on: ProCreHRV (cyclized sCre with LEVLFQGP site) (Escherichia phage P1?); details: 293T; without HRV 3C protease 5±1%; with HRVp 49±4%; FLEx.2 module
[3] = tested on: cysCreTEV (cyclized sCre with ENLYFQS site) (Escherichia phage P1?); details: 293T; uncleaved (mock); with TEVp GFP MFI similar to non-cyclized sCre
[4] = tested on: sCre (truncated Cre, residues 19-343) (Escherichia phage P1?); details: 293T; by GFP MFI; similar % GFP+ cells as full-length

Work on “FLEx DiO cassette with loxP and lox2272 pairs” yielded an activity [1] of 4.5 % GFP+ cells, an activity [2] of 5 % GFP+ cells and an activity [3] of 3.2 % GFP+ cells. For the same substance, the Cre recombination activity (GFP reporter MFI) (% of full-length Cre) [4] was 77.
